Like-named read-outs stand apart in the source and are kept apart here.
Tests used:
[1] = biological target: T1, DNA polymerase I (Pol I) (Escherichia coli, UniProt P00582 1-928); assay: BLI
[2] = biological target: T1, DNA polymerase I (Pol I); assay: BLI; remark: listed apart in the source
[3] = biological target: Pol I endo-mut (endonuclease-dead full-length Pol I) (Escherichia coli, UniProt P00582 1-928, D115A;D140A); assay: cryo-EM structure
[4] = biological target: Pol I Klenow fragment (Pol IKL) (Escherichia coli, UniProt P00582 328-928); assay: cryo-EM structure

B1: primed BLI substrate (mixed)
DNA 1: CGCTCACTGGCCGTCGTTTTACAACGTCGTGACTGGGAAAACCCTGGCGTTACC
DNA 2: ACGACGTTGTAAAACGACGGCCAGTGAGCG
Kd [1]: 0.042 ± 0.005 µM

B2: continuous BLI substrate (dsDNA)
DNA 1: GGTAACGCCAGGGTTTTCCCAGTCACGACGTTGTAAAACGACGGCCAGTGAGCG
DNA 2: B1 DNA 1
Kd [2]: 0.285 ± 0.005 µM

B3: flapped Okazaki fragment DNA (cryo-EM) (mixed)
DNA 1: B1 DNA 1
DNA 2: GGTAACGCCAGGGTTTTCCCAGTC
DNA 3: TTTTTTACGACGTTGTAAAACGACGGCCAGTGAGCG
binding result [3]: binds
binding result [4]: binds
